Results: article PMC7477745

Target: CD2 (human (endogenous in primary CD8+ T cells)) (UniProt P06729)
Sequence of UniProt P06729 (P06729 25-351): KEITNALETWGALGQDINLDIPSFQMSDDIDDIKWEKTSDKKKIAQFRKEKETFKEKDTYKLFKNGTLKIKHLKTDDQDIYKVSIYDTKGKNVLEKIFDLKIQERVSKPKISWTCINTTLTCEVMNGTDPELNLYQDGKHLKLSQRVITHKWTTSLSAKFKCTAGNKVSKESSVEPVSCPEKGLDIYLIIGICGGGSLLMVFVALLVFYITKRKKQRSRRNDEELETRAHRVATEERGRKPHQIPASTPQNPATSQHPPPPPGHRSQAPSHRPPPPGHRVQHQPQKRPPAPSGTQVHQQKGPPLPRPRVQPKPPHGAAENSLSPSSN

efficacy (Emax) of cytokine production (TNF-α, IFN-γ, IL-2; ELISA) by c58c61-TCR CD8+ T cell blasts on plate-immobilised pMHC with a titration of coimmobilised CD58, 8 h: > 10 fold
potency (EC50 of pMHC) of cytokine production (TNF-α, IFN-γ, IL-2; ELISA) by c58c61-TCR CD8+ T cell blasts on plate-immobilised pMHC with a titration of coimmobilised CD58, 8 h: 50 fold
Substance: extracellular part of human CD58 (aa 29–213) (from UniProt P19256 29-213) (ligand)
